Source: article PMC5720831

Biological target: biotinylated Mtb DnaB (Mycobacterium tuberculosis)
Experiment: BLI; Octet RED96; 200 nM biotinylated DnaB loaded on streptavidin biosensors, DciAMtb in solution at varying concentrations, 300 s association and 300 s dissociation; 150 mM NaCl, 0.02% Tween-20, 0.1% BSA, 10 mM NaPO4 pH 8; double reference subtracted; global fit, 1:1 kinetic binding model

DciAMtb, purified recombinant, untagged (from UniProt P9WFL1 1-187) (natural protein)
Kd: 211 nM
